Laboratory results reported in publication PMC5964327.

Target: T1, CHIP-myc (wild type), Q9UNE7
T1 chain: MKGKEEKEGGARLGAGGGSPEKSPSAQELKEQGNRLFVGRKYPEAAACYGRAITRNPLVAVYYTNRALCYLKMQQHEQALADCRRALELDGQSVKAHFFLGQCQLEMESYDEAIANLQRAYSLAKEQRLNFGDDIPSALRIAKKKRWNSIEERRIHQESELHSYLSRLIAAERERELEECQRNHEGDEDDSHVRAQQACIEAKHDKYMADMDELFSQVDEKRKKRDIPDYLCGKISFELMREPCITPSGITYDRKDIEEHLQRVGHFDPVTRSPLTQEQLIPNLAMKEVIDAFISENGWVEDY
Test: co-immunoprecipitation (anti-flag IP, anti-myc immunoblot), quantified
Conditions: chain shown with the change, serum deprived for 24 h, co-transfected with HSP70-V5 and CHIP-myc, read off a plot

- response (arbitrary units) (+FSK (30'), parent: est. 100): 5
- response (arbitrary units) (-FSK, parent: est. 10): 28
B1: NEK10-flag (wild type), Q6ZWH5-1 T812A (protein)
chain: MPDQDKKVKTTEKSTDKQQEITIRDYSDLKRLRCLLNVQSSKQQLPAINFDSAQNSMTKSEPAIRAGGHRARGQWHESTEAVELENFSINYKNERNFSKHPQRKLFQEIFTALVKNRLISREWVNRAPSIHFLRVLICLRLLMRDPCYQEILHSLGGIENLAQYMEIVANEYLGYGEEQHTVDKLVNMTYIFQKLAAVKDQREWVTTSGAHKTLVNLLGARDTNVLLGSLLALASLAESQECREKISELNIVENLLMILHEYDLLSKRLTAELLRLLCAEPQVKEQVKLYEGIPVLLSLLHSDHLKLLWSIVWILVQVCEDPETSVEIRIWGGIKQLLHILQGDRNFVSDHSSIGSLSSANAAGRIQQLHLSEDLSPREIQENTFSLQAACCAALTELVLNDTNAHQVVQENGVYTIAKLILPNKQKNAAKSNLLQCYAFRALRFLFSMERNRPLFKRLFPTDLFEIFIDIGHYVRDISAYEELVSKLNLLVEDELKQIAENIESINQNKAPLKYIGNYAILDHLGSGAFGCVYKVRKHSGQNLLAMKEVNLHNPAFGKDKKDRDSSVRNIVSELTIIKEQLYHPNIVRYYKTFLENDRLYIVMELIEGAPLGEHFSSLKEKHHHFTEERLWKIFIQLCLALRYLHKEKRIVHRDLTPNNIMLGDKDKVTVTDFGLAKQKQENSKLTSVVGTILYSCPEVLKSEPYGEKADVWAVGCILYQMATLSPPFYSTNMLSLATKIVEAVYEPVPEGIYSEKVTDTISRCLTPDAEARPDIVEVSSMISDVMMKYLDNLSTSQLSLEKKLERERRRAQRYFMEANRNTVTCHHELAVLSHETFEKASLSSSSSGAASLKSELSESADLPPEGFQASYGKDEDRACDEILSDDNFNLENAEKDTYSEVDDELDISDNSSSSSSSPLKESTFNILKRSFSASGGERQSQTRDFTGGTGSRPRPALLPLDLLLKVPPHMLRAHIKEIEAELVTGWQSHSLPAVILRNLKDHGPQMGTFLWQASAGIAVSQRKVRQISDPIQQILIQLHKIIYITQLPPALHHNLKRRVIERFKKSLFSQQSNPCNLKSEIKKLSQGSPEPIEPNFFTADYHLLHRSSGGNSLSPNDPTGLPTSIELEEGITYEQMQTVIEEVLEESGYYNFTSNRYHSYPWGTKNHPTKR
